Test results taken from patent US20250295731A1.

Experiments:
[1] = biological target: α9β1 integrin (UniProt Q13797); assay: inhibition of α9LN18 cell adhesion to immobilized F9 fraction
[2] = biological target: α9β1 integrin (UniProt Q13797); assay: inhibition of α9LN18 cell adhesion to immobilized recombinant VCAM-1
[3] = biological target: α9β1 integrin (UniProt Q13797); assay: inhibition of α9+ cell adhesion to immobilized VCAM-1
[4] = biological target: α9β1 integrin (UniProt Q13797); assay: inhibition of α9+ cell adhesion to immobilized Fraction 9-4

UniProt Q13797, sequence (Q13797 30-1035, chain 1 of 2): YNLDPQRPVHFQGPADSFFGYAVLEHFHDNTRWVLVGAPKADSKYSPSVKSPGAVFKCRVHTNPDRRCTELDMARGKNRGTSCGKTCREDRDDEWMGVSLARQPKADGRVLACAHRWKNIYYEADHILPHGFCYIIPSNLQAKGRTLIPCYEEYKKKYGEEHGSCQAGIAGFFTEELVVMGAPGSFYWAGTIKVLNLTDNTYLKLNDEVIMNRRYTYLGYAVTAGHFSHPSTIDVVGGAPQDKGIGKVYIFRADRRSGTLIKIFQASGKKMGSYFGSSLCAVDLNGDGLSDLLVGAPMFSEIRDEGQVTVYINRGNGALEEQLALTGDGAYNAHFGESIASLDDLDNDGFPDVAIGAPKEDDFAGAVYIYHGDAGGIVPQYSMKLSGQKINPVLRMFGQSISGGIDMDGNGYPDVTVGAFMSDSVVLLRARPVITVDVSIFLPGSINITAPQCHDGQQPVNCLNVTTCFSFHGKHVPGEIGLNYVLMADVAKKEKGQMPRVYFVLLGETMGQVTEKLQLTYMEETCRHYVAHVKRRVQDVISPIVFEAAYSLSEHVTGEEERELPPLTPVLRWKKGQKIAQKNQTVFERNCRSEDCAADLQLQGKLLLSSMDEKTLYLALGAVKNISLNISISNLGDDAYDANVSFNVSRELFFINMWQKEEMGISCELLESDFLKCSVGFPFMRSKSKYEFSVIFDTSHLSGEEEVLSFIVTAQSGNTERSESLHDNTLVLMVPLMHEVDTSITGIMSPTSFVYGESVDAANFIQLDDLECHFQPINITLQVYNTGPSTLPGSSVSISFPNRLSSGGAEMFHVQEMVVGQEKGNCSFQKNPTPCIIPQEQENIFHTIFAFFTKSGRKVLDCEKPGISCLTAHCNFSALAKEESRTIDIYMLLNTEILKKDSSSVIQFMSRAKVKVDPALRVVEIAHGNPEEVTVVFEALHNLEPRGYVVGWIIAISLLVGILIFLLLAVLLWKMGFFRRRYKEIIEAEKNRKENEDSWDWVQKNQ
UniProt Q13797, sequence (P05556 21-798, chain 2 of 2, further chain): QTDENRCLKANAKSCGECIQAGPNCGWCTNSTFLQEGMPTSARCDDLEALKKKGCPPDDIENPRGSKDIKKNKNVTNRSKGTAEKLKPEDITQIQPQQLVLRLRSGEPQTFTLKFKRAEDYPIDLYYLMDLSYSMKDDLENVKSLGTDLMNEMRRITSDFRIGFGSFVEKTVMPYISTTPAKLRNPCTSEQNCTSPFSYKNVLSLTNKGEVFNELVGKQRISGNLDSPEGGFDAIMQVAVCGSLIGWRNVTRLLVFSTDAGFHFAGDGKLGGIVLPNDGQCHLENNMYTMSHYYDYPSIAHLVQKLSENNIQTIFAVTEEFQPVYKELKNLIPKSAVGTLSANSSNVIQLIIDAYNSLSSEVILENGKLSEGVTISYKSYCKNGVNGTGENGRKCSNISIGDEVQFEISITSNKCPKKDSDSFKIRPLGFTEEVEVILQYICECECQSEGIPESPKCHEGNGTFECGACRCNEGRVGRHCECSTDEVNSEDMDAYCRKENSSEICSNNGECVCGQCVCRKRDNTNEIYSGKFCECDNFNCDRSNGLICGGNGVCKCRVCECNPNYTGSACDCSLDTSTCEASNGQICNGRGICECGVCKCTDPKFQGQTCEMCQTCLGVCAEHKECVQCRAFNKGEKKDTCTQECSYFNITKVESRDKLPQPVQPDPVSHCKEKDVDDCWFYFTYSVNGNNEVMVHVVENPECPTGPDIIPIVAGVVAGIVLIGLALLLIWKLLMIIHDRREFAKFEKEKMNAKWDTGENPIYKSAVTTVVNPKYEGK
VLO5, snake venom MLD-disintegrin, sequence (P0C6A9 whole entry): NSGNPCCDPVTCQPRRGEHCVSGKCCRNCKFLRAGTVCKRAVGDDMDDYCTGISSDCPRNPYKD
VLO5, snake venom MLD-disintegrin, sequence (P0C6B0 whole entry, further chain): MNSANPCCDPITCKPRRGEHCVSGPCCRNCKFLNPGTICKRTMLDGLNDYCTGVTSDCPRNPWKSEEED

concentration giving complete inhibition of cell adhesion [1]	concentration giving complete inhibition of cell adhesion [2]	Substance	IC50 [3]	IC50 [4]
500 µM	500 µM	CS-1 peptide EILDVPST	–	–
–	–	VLO5, snake venom MLD-disintegrin	3.2 nM	5.6 nM
